Measurements published in PMC6802930.
One block for each substance: values may come before it.

Assays:
[1] = target: ^HAβ3 (rat GABAA receptor β3 subunit with a triple HA tag) (rat) (UniProt P63079)
[2] = target: ^HAβ3/θIC chimera (EC and TM domains from β3, intracellular domain from θ) (rat)
[3] = target: ^HAβ3/θIC chimera (EC and TM domains from β3, intracellular domain from θ) (rat); remark: listed apart in the source
[4] = target: ^HAβ3 (rat GABAA receptor β3 subunit with a triple HA tag) (rat) (UniProt P63079); remark: listed apart in the source
[5] = target: ^HAβ3/θIC chimera (EC and TM domains from β3, intracellular domain from θ) (rat); remark: listed apart in the source
[6] = target: ^HAβ3 (rat GABAA receptor β3 subunit with a triple HA tag) (rat) (UniProt P63079); remark: listed apart in the source

Substance: rat GABAA receptor α3 subunit (untagged) (from UniProt P20236 29-493)
histamine (3 mM) potentiation of the response to 1 mM GABA, whole-cell patch clamp, HEK293 cells co-transfected with α3 and ^HAβ3 [1]: 2.93 fold
peak whole-cell current evoked by 1 mM GABA, HEK293 cells co-transfected with α3 and ^HAβ3/θIC (patch clamp) [2]: 803 pA
anti-HA surface immunofluorescence intensity of non-permeabilized HEK293 cells co-transfected with α3 and ^HAβ3/θIC (the chimera alone is rarely on the surface) [3]: 14 AU

share of the low-affinity component in the bimodal histamine concentration-response curve (10 μM to 10 mM), whole-cell patch clamp, HEK293 cells co-transfected with ^zβ3Q64E and ^HAβ3 (% of the total curve fit) [4]: 85
Substance: ^zβ3Q64E (mutant β3 subunit with higher affinity for histamine) (from UniProt P63079 26-473) (receptor)

anti-HA surface immunofluorescence intensity of non-permeabilized HEK293 cells co-transfected with untagged β3 and ^HAβ3/θIC (the chimera alone is rarely on the surface) [5]: 9.9 AU
Substance: rat GABAA receptor β3 subunit (untagged) (from UniProt P63079 26-473)

peak whole-cell current evoked by 3 mM histamine, HEK293 cells transfected with ^HAβ3 alone (patch clamp, -80 mV) [6]: 404 pA
Substance: ^HAβ3 (rat GABAA receptor β3 subunit with a triple HA tag) (from UniProt P63079 26-473)
